± gives the half width of the 95% confidence interval.
Columns and labels:
[1] = folding stability dG unfold (combined trypsin and chymotrypsin); higher = more stable
How it was run: (§1)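 Unfolding free energy was derived, per protease or combined, against a sequence-predicted unfolded-state K50 and a shared folded-state K50, starting from K50 inferred by Bayesian fitting of sequencing counts. Digestion with trypsin and chymotrypsin was carried out on designed mini-proteins under 80 residues without cysteine in a PA-tagged cDNA display construct. Only designs with AlphaFold2 dimer inter-PAE above 15 were kept.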

[2] = folding stability dG unfold from trypsin proteolysis; higher = more stable
How it was run: as §1

[3] = folding stability dG unfold from chymotrypsin proteolysis; higher = more stable
How it was run: as §1

Sequence | folding stability dG unfold [1] [kcal/mol] | folding stability dG unfold [2] [kcal/mol] | folding stability dG unfold [3] [kcal/mol]
SPKELEFKHPDNGMEVKIRLDPNQGRIEIEVRPPNGPPVKMDMEVTDDRIKIDIYYPGGRPMMQLEFPLPSA [r9_665_TrROS] | 2.88 ± 0.085 | 2.92 ± 0.15 | 2.79 ± 0.074
SPKIKIVSVSRTAGGALVALLELEDRPITLYRPLALPYILASAEIPGTNEVKTILAPSSISPEEIAKLLGSA [r9_522_TrMRF] | 1.75 ± 0.089 | 1.59 ± 0.037 | 1.75 ± 0.09
SPKVTLTLEGKVITFPAPLAEKLLGELQRKGYKVKILSVEPDPETDEIYLVMEVEPLKPPPLPPPNPLLESA [r9_448_TrMRF] | 2.05 ± 0.35 | 1.16 ± 0.14 | 2.28 ± 0.062
SPLTAEQIKKLLRELFPNAKIVSIEYDKENKTVTITFEDGLKIEVTVTEDGRVIIRITLPGKEITIEIEVSA [r9_304_TrROS_Hall] | 4.44 ± 0.22 | 4.22 ± 0.3 | 4.03 ± 0.23
SPLVLNPEGRTLTITLTVTVDPDVDRQVVPVLVVDEGAPRTFTFEVPKGLAGPVTFTLEIDLPPGAYVEVSA [r9_973_TrMRF] | 2.18 ± 0.049 | 2.05 ± 0.028 | 2.29 ± 0.066
SPNLKPVEFPIKIPGYKIRRVSIWKSPDGPVEIFVRFPDGWYYEFEIPPNGDIQPMKITEAVPPDEDKKNSA [r9_1075_TrROS] | 1.38 ± 0.16 | 1.57 ± 0.086 | 1.14 ± 0.17
SPNMQPVEMEFKIKVPGKPVDIKIEMWRMPDGQTRMDIRYPDGRSIMFNPSNGSIKIYDPKDGKPLAEISSA [r9_970_TrROS] | 1.38 ± 0.16 | 1.1 ± 0.057 | 1.47 ± 0.073
SPPVRARIRVERLPDGSVRVELEVEFPDGVRVRIETLEAPPETGVVRVRARFFPPDGSSVEFEFTFPLLRSA [r9_1179_TrMRF] | 4.52 ± 0.11 | 3.74 ± 0.086 | 4.96 ± 0.12
SPQNLVRIAEIKVELKLDGKKYIITIEVYRPPDSDEVIVRVKVIDPSSDKSSPELEKIAKELEKKIEEELKS [r1_229_JUSTAS] | 3.54 ± 0.18 | 2.53 ± 0.19 | 4.09 ± 0.1
SPRIKIDIPFFNANGHPQEVEIEYSPTDGMLMIKFPRNGYYIMIQIKRIEWEDGKLEIELDIFIMPPGDFSA [r9_587_TrROS] | 4.17 ± 0.43 | 3.01 ± 0.18 | 4.55 ± 0.22
SPSTTIPQTITLDTKLPNGKPATPEEVKAIAEEIVKKLEKEKGVKISINVKVTPVDSSGKYKLDITITIIKS [r1_231_JUSTAS] | 2.59 ± 0.11 | 2.14 ± 0.047 | 2.81 ± 0.072
SPVEIVSEETDPNGGTKYKTYSNPQADVRIEVAYPSSGITITVHFPDSTSTKSFSSEADAEKEVVRLAASSA [r9_527_JUSTAS] | 0.711 ± 0.11 | 0.339 ± 0.086 | 0.944 ± 0.15
SPVLEKIRKLVEELLKKLGIEVKEGETVEIEITLPDGSTIRITFDAKTKKITVEITIDGKKVTLTLEIKPSA [r9_426_TrROS_Hall] | > 6 | 4.2 ± 0.3 | 5.68 ± 0.72
SPVSLSFTTAPSGLPTVTSASQPADGSLLLTLTEPATGATTTLTLPPGLPPGVERTVTLPGPDGATTLTVGS [r1_43_JUSTAS] | 0.364 ± 0.073 | -0.678 ± 0.19 | 0.723 ± 0.11
SPVVVTTSPGPDGGARVTIYFPKTGKPIEFDITDPDLVEESTSDPNTRVDIPEEVLRSLAPDLFTGFTTESA [r9_390_TrMRF] | 0.362 ± 0.065 | 0.497 ± 0.046 | 0.241 ± 0.1
SPWYVRIKLEYPGKEKRIMIPPDESISQIKDNIRDFAREMGLEEPPLDDFKIEDVEVFPDENGMVSIEIKSA [r9_1053_TrROS] | 0.819 ± 0.41 | 0.606 ± 0.32 | 1.15 ± 0.21
SPYTVDSVSEDPSRNSTTVLNFPDGTTVTVTYDPSNPSLATVTVRPADGTTETTTVPLDEPFVVNLTVNPSA [r9_875_JUSTAS] | 1.02 ± 0.21 | 0.922 ± 0.074 | 0.94 ± 0.17
SQWVIKIKFPNPDGEPVKIIFPVEEIQEIFKEEHGEPSSPQEFADRLAKHHPNVDVEIMPLDDMPPEQLNSA [r9_1085_TrROS] | -0.0736 ± 0.34 | -0.998 ± 0.66 | 0.42 ± 0.21

Sequence | folding stability dG unfold [1] [kcal/mol] | folding stability dG unfold [2] [kcal/mol] | folding stability dG unfold [3] [kcal/mol]
SRDLLKELAEKFPNFEPKGVQEEPTDNGGVKLQVIARHPKNGRYYKIEITVPPDGKIEDIEIEPVPLDDLSA [r9_274_TrROS] | 2.61 ± 0.09 | 2.3 ± 0.045 | 2.823 ± 0.021
SRRLITIEITVTLPGNPEVTLSKTLKLPTEDVEEAIEKAKKEFKEEFGIPEDVPVKIEVTVSTSDGDPSLQS [r1_149_JUSTAS] | 1.96 ± 0.068 | 2.53 ± 0.18 | 1.56 ± 0.049
SRTIENPDNGIKITVDRVPGGRYRVHIFNPGGKPIHEREIPDMPIPPGDTREIKIPIKGLPPGMYLMLEPWS [r1_263_TrROS] | 0.719 ± 0.13 | 0.502 ± 0.16 | 0.842 ± 0.13
SSAEEIVEKLKKELEEKLPEDYKITSVTLTKSPDGIVTAPMTIKSSDGVESTVTVTYDLKTGKITIEVNSSA [r9_219_JUSTAS] | 4.73 ± 0.22 | 3.42 ± 0.25 | 4.84 ± 0.12
SSEELRELILNEAAKLGVKIKEIKVKEDPSTNTVSIEITVPDGKVIKLSFTRTSDGGYSYDINELKAGLESA [r9_85_JUSTAS] | > 6 | 5.35 ± 0.35 | 6.2 ± 0.14
SSISIPGLTEEKAAELAKRLRELFPGAEVKTTTFPEKKVVVVDVTLPVVDADGKLVGTVKLRLVLVVEDDSA [r9_378_TrMRF] | 4.84 ± 0.34 | 4.6 ± 0.19 | 4.55 ± 0.21
SSISPSSTLTFSKPFPDDDINAVKEFAEKLAKEIGPDVSVVKIEKDPNNPNKVTITISVPGTSITVNFSNSA [r9_1079_JUSTAS] | 1.01 ± 0.14 | 1.09 ± 0.054 | 0.664 ± 0.26
SSKIKEFIIKLPEKNKYYKIIVTPTEIYIYDENGKKIKKFSIPKNKKIKKIDIKIDKKKNKLIIKVYLEKSA [r9_939_TrMRF] | 4.42 ± 0.21 | 4.14 ± 0.23 | 4.54 ± 0.098
SSKTVTVTTEEEEKEAREKIKELVKPGKSVDVEITMTGPDGTRTRRTYKITTNPDGTITIEETETPLPPPSA [r9_1023_JUSTAS] | 2.17 ± 0.21 | 1.5 ± 0.034 | 2.43 ± 0.057
SSLEIPPEVLAEIKKAALEGDDEKVKELLKELGFTKVEIKYEKLDGKVKLTIKVEHPEGPATITFSDELLSA [r9_783_JUSTAS] | 4.23 ± 0.28 | 3.36 ± 0.18 | 4.15 ± 0.15
SSPEEDLEEIEITVTNPNDPRPSFVKVTRSPEGYEATFTLPDGKTVKIPPELGLEEIKKLPSSFTITILPSA [r9_781_JUSTAS] | 0.561 ± 0.064 | 0.0376 ± 0.059 | 0.83 ± 0.087
SSPMTVEELLERHPNLLVVRLPDGTVYLFDPEKETLYTVTPGTGEVTVTPLSLEELLALLPAAGHEVLPLSA [r9_721_JUSTAS] | 1.99 ± 0.11 | 1.74 ± 0.1 | 2.14 ± 0.092
SSSAEIRAYRFPDFWLVEIDLRDGDKLVGTAVFPNDGSVSLEEVAEAFRAAHPDFDVEISAIEPVPPPPPSA [r9_364_TrMRF] | 2.01 ± 0.12 | 1.71 ± 0.064 | 2.08 ± 0.063
SSSGTDPLTVRVTVTLTDPSTGKETLLEYEVEVPPGTPVEVELPDVPPSASVTVEVYDPGGVRIGTRTLPSA [r9_478_JUSTAS] | 1.95 ± 0.4 | 1.81 ± 0.14 | 1.78 ± 0.11
SSSPSGLSVTSSTVTKVETDPGPGNVTTVTVTTLNNSVLIIPLPGKPLVIPTNTTVETTYTVPPDDPSPASA [r9_531_JUSTAS] | 1.15 ± 0.074 | 1.31 ± 0.073 | 0.87 ± 0.11
SSSSMKTVFDPNRPYPRTVLVTFLPDGTVVITAPGKKLSTVKVEIEPPPPLELRPRVSPNGERSPGYLRLGS [r1_496_JUSTAS] | 1.47 ± 0.16 | 1.1 ± 0.18 | 1.76 ± 0.14
SSSSTLVSSYTLTLKDEKGNEITLKVDVYKFPSGSYRVEITRPDGTVTEYEFPASEPPTEEKIKELALKKSA [r9_616_JUSTAS] | > 6 | 4.47 ± 0.46 | 6.01 ± 0.13
SSWEKLSTLTLPSTGLTVTFYYDPSTNSTAVKVTDGAGPELSEKVLSDDETFTLPDGVSIKLPKGAEPASSA [r9_340_JUSTAS] | 1.02 ± 0.081 | 0.334 ± 0.021 | 1.45 ± 0.077

— the supplement of paper PMC12764529
